# Target: ParC55 (topoisomerase IV ParC breakage-reunion domain);ParE30 (topoisomerase IV ParE TOPRIM domain) (Streptococcus pneumoniae;Streptococcus …, UniProt P72525;Q59961 1-488;404-647, |)
# Assay: X-ray crystallography (3.1 A); PD 0305970 (two intercalated), Mg2+; cleaved DNA, covalent Tyr118; Complex: 20 mM Tris-HCl pH 7.0, 200 then 75 mM NaCl, 10% glycerol, 1 mM b-mercaptoethanol, 20 mM MgCl2, 0.05% NaN3, PD 0305970, room temperature; crystals: 50 mM Na cacodylate pH 6.5, 2.5% Tacsimate pH 7.0, 62.5 mM KCl, 7.5 mM MgCl2, 4-6% isopropanol; data at 100 K
# Details: protein: recombinant;recombinant; tags: C-terminal His tag;N-terminal His tag; chain copies: 2;2; blunt
# ParC55 (topoisomerase IV ParC breakage-reunion domain);ParE30 (topoisomerase IV ParE TOPRIM domain), sequence (P72525 1-488, chain 1 of 2): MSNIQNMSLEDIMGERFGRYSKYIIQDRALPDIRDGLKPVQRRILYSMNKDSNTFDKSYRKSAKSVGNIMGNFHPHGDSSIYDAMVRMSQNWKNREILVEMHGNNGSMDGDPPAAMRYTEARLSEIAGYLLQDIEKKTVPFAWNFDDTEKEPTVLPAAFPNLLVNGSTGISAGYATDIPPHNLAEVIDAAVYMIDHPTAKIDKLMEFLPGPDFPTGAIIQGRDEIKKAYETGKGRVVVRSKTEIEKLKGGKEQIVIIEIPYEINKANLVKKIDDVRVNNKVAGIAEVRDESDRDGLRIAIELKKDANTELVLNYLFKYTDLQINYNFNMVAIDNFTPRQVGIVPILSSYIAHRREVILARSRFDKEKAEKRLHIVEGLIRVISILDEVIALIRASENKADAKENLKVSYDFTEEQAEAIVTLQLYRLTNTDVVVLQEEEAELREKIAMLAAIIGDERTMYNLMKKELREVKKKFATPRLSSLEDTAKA
# ParC55 (topoisomerase IV ParC breakage-reunion domain);ParE30 (topoisomerase IV ParE TOPRIM domain), sequence (Q59961 404-647, chain 2 of 2): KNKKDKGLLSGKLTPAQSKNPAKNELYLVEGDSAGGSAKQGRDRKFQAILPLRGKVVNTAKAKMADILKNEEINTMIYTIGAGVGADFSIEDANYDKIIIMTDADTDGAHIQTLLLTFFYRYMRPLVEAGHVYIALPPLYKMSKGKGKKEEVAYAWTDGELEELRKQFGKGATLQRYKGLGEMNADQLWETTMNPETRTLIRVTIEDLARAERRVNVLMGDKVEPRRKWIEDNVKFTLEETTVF
binder,measurement,value
"34-bp E-site G-segment DNA (dsDNA, none (cleaved with 4-bp stagger in the complex, or resealed, by row)) DNA 1: ACCAAGGTCATGAATGACTATGCACGTAAAACAG DNA 2: CTGTTTTACGTGCATAGTCATTCATGACCTTGGT",binding result,binds

# From PMC2893164, “Structural Basis of Gate-DNA Breakage and Resealing by Type II Topoisomerases”
